Reference: patent US8198235B2, “Use of GILZ protein expressed in dendritic cells to modulate an antigen-specific immune response” (Assistance Publique-Hopitaux de Paris, priority 2004, dated 2012)

B1: IL-10: recombinant human IL-10 (rhIL-10, DNAX) (protein, UniProt P22301 19-178, looked up)
Interleukin-10: SPGQGTQSENSCTHFPGNLPNMLRDLRDAFSRVKTFFQMKDQLDNLLLKESLLEDFKGYLGCQALSEMIQFYLEEVMPQAENQDPDIKAHVNSLGENLKTLRLRLRRCHRFLPCENKSKAVEQVKNAFNKLQEKGIYKAMSEFDIFINYIEAYMTMKIRN

Key:
Type in all cases: cell-based, human
regulatory T lymphocytes = test: Induction of regulatory T cells: sensitized CD4+ T cells added to autologous PBMCs stimulated with PPD or CMV; settings: CD4+ T sensitized with PPD-loaded dendritic cells treated with dexamethasone and control siRNA
Text: To evaluate the induction of the regulatory T cells (Tregs), immature monocyte-derived dendritic cells treated on the fifth day of culture (D5) with a controlled siRNA or an siRNA targeting GILZ (siRNA GILZ) alone, or else with either dexamethasone (DEX) or IL-10, or not treated, and then treated with the PPD on D7, were cocultured with CD4^+ T cells, as described in example 2. The CD4^+ T cells were purified on the seventh day of DC-CD4^+ T coculture and added in increasing amounts to 10^5 autologous PBMCs stimulated with PPD (1 μg/ml, STATENS SERUM INSTITUTE) or the cytomegalovirus (CMV, 25 μg/ml, BEHRING).
The hypothesis that the GILZ-expressing dendritic cells inhibit the CD4^+ T lymphocyte response by inducing regulatory T lymphocytes during antigen presentation was verified experimentally. Dendritic cells were treated with a control or anti-GILZ siRNA, alone or with dexamethasone, and with PPD (first culture). After washing, the dendritic cells were used to stimulate autologous CD4^+ T lymphocytes. The CD4^+ T lymphocytes of this second culture (sensitized CD4^+ T lymphocytes) were purified and added in increasing amounts to autologous PBMCs stimulated either with PPD or with CMV (third culture). The CD4^+ T lymphocytes sensitized with nontreated dendritic cells or dendritic cells treated with a control siRNA have no effect on the proliferative response of the third culture. […]

GILZ gene = test: Quantitative RT-PCR analysis of GILZ gene expression in monocyte derived dendritic cells; settings: added on fifth day of culture; Dex 10^-7 M, IL-10 100 ng/ml, TGFβ 20 ng/ml; detected before and after CD40L
Method: (§1) Immature monocyte derived dendritic cells (iMDDCs) were prepared as described in Palucka et al., J. Immunol., 1998, 160, 4587-4595, apart from minor modifications. Briefly, human monocytes were isolated from the peripheral blood mononucleocell fraction by negative selection, according to the manufacturer's (DYNAL) recommendations. The monocytes (1 to 2×10^5 cells/ml) were cultured for 7 days in the presence of GM-CSF and IL-4 (100 ng/ml and 50 ng/ml, respectively, SCHERING-PLOUGH). The maturation of the dendritic cells (MDDCs) was induced in the presence of CD40L (250 ng/ml; IMMUNEX). Dexamethasone (DEX, SIGMA), recombinant human IL-10 (rhIL-10, DNAX) and TGFβ (R&D) were used at the following respective concentrations: 10^−7 M, 100 ng/ml and 20 ng/ml. For the in vivo experiments, the antigen-presenting cells (APCs) were purified using the monocyte negative selection kit according to the manufacturer's (DYNAL) recommendations.
The expression of the human GILZ gene was analyzed by real time RT-PCR according to the manufacturer's recommendations (Lightcycler™, ROCHE), using the pair of primers described in Berrebi et al. BLOOD, 2003, 101, 729-738 and the human β-actin gene as internal control.

[1] = system: monocyte derived dendritic cells; test: Dendritic cell phenotype by flow cytometry (CD80, CD83, CD86, B7-H1); settings: treated D5, CD40L D7, phenotype D9
Method: as §1
The dendritic cell phenotype was analyzed by four-color flow cytometry, using the following monoclonal antibodies: phycoerythrin-coupled anti-CD83 (CD83-PE, COULTER); phycoerythrin-coupled anti-CD80 (CD80-PE, BD BIOSCIENCES); anti-B7-H1 (CLINISCIENCES) and phycoerythrin-coupled anti-CD86 (CD86-PE, BD PHARMINGEN). The anti-B7-H1 antibody is detected using a phycoerythrin-coupled secondary antibody (BD PHARMINGEN). […]

CCL3, CCL5 and CXCL8 = test: Chemokine ELISA in dendritic cell culture supernatant after CD40L; settings: dendritic cells treated before addition of CD40L
Method: as §1
The production of chemokines in the culture supernatant of the dendritic cells was analyzed using ELISA kits (R&D SYSTEMS) according to the manufacturer's instructions.

| Molecule | anti-CMV response of the third culture (regulatory T lymphocytes) | expression of GILZ (RT-PCR) (GILZ gene) | expression of B7-H1 [1] | expression of CD80, CD83 and CD86 [1] | CD40L-induced production of the chemokines CCL3, CCL5 and CXCL8 (CCL3, CCL5 and CXCL8) |
| --- | --- | --- | --- | --- | --- |
| C[C@@H]1C[C@H]2[C@@H]3CCC4=CC(=O)C=C[C@]4(C)[C@@]3(F)[C@@H](O)C[C@]2(C)[C@@]1(O)C(=O)CO [dexamethasone] | no effect |  |  |  |  |
| TGFβ |  | stimulates the expression of GILZ |  |  |  |
| B1 |  | stimulates the expression of GILZ | stimulate | inhibit | partially inhibited |
